Measurements published in PMC1402309, “Selection, affinity maturation, and characterization of a human scFv antibody against CEA protein” (BMC Cancer, 2006).
Read-outs that look alike come from different tables or passages of the source.

Assays:
[1] = target: T1, carcinoembryonic antigen (CEA), human purified protein (Sigma) (Homo sapiens, UniProt P06731, biotin (biotinamidohexanoic acid N-hydroxysuccinimide ester) for selection and for the ELISA on streptavidin-coated plates; biotin-free for directly coated plates)
T1 sequence (P06731 35-685): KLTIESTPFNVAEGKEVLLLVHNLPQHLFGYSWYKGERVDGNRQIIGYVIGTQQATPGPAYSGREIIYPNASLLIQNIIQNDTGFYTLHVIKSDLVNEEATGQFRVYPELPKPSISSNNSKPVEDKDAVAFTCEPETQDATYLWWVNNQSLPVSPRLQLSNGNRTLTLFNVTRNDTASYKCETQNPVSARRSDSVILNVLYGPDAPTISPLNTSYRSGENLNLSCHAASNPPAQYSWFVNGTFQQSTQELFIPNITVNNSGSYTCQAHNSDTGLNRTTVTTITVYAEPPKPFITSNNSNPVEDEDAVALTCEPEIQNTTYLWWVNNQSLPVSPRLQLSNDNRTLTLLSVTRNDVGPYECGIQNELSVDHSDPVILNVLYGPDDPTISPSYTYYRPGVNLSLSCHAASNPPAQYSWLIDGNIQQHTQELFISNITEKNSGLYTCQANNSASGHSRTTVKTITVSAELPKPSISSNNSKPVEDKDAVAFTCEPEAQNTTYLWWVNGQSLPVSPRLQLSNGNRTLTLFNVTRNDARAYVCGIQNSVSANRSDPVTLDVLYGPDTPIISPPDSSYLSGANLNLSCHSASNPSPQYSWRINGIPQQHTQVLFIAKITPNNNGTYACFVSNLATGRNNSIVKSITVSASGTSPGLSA

[2] = target: T1, carcinoembryonic antigen (CEA), human …; assay: ELISA; biotinylated CEA (1 ug/mL) on streptavidin-coated plates; scFv in blocking buffer (MPBS) 1 h at RT; anti-FLAG M2 and anti-mouse HRP; details: one partner purified
[3] = target: T2, CEA, endogenous in human colon carcinoma LoVo cells (Homo sapiens (LoVo cells), UniProt P06731); assay: flow cytometry on cells; living/intact human cells; 5 ug/mL scFv in PBS 1% BSA, 1 h at RT; anti-FLAG and FITC goat anti-mouse IgG; grades by percent stained cells; details: one partner purified
T2 construct: carcinoembryonic antigen (CEA, CEACAM5), endogenous in LoVo colorectal carcinoma cells; which member carries the signal on cells is not separated; also called CEA in LoVo cells; 200 kDa band of LoVo cellular extract; source: endogenous, LoVo cells (on cells) and LoVo cellular extract
T2 sequence (P06731 35-685): as above

B1: B3 (antibody, V domains shown)
VH: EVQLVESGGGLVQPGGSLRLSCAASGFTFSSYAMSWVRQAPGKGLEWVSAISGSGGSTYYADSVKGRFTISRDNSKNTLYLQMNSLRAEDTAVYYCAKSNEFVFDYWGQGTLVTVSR
VL: SSELTQDPAVSVALRQTVRITCQRDSLRSYYASWYQQKPGQAPVLVIYGKNNRPSGIPDRFSGSSSGNTASLTITGAQAEDEADYYCNSSYPWLPYVVFGGGTKLTVL
binding result [1]: binds

B2: B5 (antibody, V domains shown)
VH: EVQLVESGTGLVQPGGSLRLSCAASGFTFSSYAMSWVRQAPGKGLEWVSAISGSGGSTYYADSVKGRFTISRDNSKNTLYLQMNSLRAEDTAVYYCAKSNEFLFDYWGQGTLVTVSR
VL: SSELTQDPAVPVALRQTVRITCQGDSLRSYYASWYQQKPGQAPVLVIYGKNNRPSGIPDRFSGSSSGNTASLTITGAQAEDEADYYCNSSYPWLPYVVFGGGTKLTVL
binding result [1]: binds

B3: B17 (antibody, V domains shown)
VH: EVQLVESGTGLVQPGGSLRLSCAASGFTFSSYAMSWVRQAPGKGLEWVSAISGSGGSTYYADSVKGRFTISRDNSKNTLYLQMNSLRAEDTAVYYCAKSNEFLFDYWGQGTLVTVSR
VL: SSELTQDPAVSVALGQTVRITCQGDSLRSYYASWYQQKPGQAPVLVIYGKNNRPSGIPDRFSGSSSGNTASLTITGAQAEDEADYYCNSSYPWLPYVVFGGGTKLTVL
binding result [1]: binds

B4: E1 (antibody, V domains shown)
VH: EVQLAESGGGLVQPGGSLRLPCAAPGFTFSSYAMSTVRQAPGKGLEWVSAISGSGGSTYYADSVKGRFTISRDNSKNTLYLQMNSLRAEDTAVYYCAKSNEFLFDYWGQGTLVTVSR
VL: SSELTQDPAVSVALGQTVRITCRGDSLRSSYASWYQQKPGQAPVLVIYGKNNRPSGIPDRFSVSSSGNTASLTITGAQAEDEADYYCNSSYAWPPYVVFGGGTKLTVL
binding result [1]: binds

B5: E2 (antibody, V domains shown)
VH: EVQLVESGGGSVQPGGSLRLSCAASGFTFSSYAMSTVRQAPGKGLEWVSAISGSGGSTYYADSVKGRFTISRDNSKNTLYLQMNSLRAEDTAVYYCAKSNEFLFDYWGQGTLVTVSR
VL: SSELTQDPAVSAAWGQTVRITCRGGSLGSSRASWYQQKPGQAPVLVIYGRNNRPSGIPDRFSGSSSGNTASLAITGAQAEDEADYYCNSSYAWLPYVVFGGGTKLTVL
binding result [1]: binds

B6: E3 (antibody, V domains shown)
VH: EVQLAESGGGLVRPGGSLRLSCAASGFTFSSYAMSTVRQAPGKGLEWVSAISGSGGSTYYADSVKGRFTISRDNSENTLYLQMNSLRAEDTAVYYCAKSNEFLFDYWGQGTLVTVSR
VL: SSELTQDPAVSVALGQTVRITCQGDSLRSSYASWYQQKPGQAPVLVIYGKNNRPSGIPDRFSGSSSGNTASLTITGAQAEDEADYYCNSSYAWLPYVVFGGGTKLTVL
binding result [1]: binds

B7: E4 (antibody, V domains shown)
VH: EVQLAESGGGLVQPGGSLRLSCAASGFTFSSYGMSTVRQAPGKGLEWVSAISGSGGSTYYADSVKGRFTISRDNSKNTLYLQMNSLRAEDTAVYYCAKSNEFLFDYWGQGTLVTVSR
VL: LSELTQDPAASVALGQTVRITCQGDSLRSSYASWYQQKPGQAPVLVIYGKNNRPPGIPDRFSVSSSGNTASLTITGAQAEDEADYYCNSSYAWLPYVVFGGGTKLTVL
binding result [1]: binds

B8: E5 (antibody, V domains shown)
VH: EVQLAESGGGLVQPGGSLRLSCAASGLTFSSYGMSTVRQAPGKGLEWVSAISGSGGSTYYADSVKGRFTISRDNSKNTLYLQMNSLRAEDTAVYYCAKSNEFLFDYWGQGTLVTVSR
VL: SSELTQDPAVSVASGQTVRITCQGDSLRSSYASWYQRKPGQAPVLVIYGKNNRPSGIPDRFSGSSSGSTASLTITGAQAEDEADYYCNSSYAWLPYVVFGGGTKLTVL
binding result [1]: binds

B9: E6 (antibody, V domains shown)
VH: EVQLVETGGGLVQPGGSLRLSCAASGFAFSSYGMSTVRQAPGKGLEWVSAISGSGGSTYYADSVKGRFTISRDNSKNTLYLQMNSLRAEDTAVYYCAKSNEFLFDYWGQGTLVTVSR
VL: SSELTQDPAVSVALGQTVRITCQGDSLRSSHASWYQQKPGRAPVLVIYGKNNRPSGIPARFSASSSGNTASLTITGAQAEDEADYYCNSSYAWLPYVVFGGGTKLTVL
binding result [1]: binds

B10: E9 (antibody, V domains shown)
VH: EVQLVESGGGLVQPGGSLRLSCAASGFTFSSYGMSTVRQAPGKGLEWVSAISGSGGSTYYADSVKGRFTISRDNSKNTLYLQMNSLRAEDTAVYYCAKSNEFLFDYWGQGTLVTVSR
VL: SSELTQDPAVSVALGQTVRITCQGDSLRSSYASWYQQKPGQAPVLVIYGKNNRPSGIPGRFSVSSSGNTASLTITGAQAEDEADYYCNSSYAWLPYVVFGGGTKLTVL
binding result [1]: binds

B11: E13 (antibody, V domains shown)
VH: EVQLAEPGGGLVQPGGSLRLSCAASGLTFSSYAMSTIRQAPGKGLEWVSAISGSGGSTYYADSVKGRFTISRDNSENTLYLQMNSLRAEDTAVYYCAKSNEFLFDYWGQGTLVTVSR
VL: SSELTQDPAVSVALGQAVRITCQGDSLRSTYASWYQQKPGQAPVLVIYGKNNRPSGIPDRFSGSSSGNTASLTIAGAQAEDEADYYCNSSYAWLPYVVFGGGTKLTVL
binding result [1]: binds

B12: E14 (antibody, V domains shown)
VH: EVQLAESGGGLVQPGGSLRLSCAASGFTFSSYAMSTVRQAPGKGLEWVSAISGSGGSTYYADSVMGRFTISRDNSKNTLYLQMNSLRAEDTAVYYCAKSNEFLFDYWGQGTLVTVSR
VL: SSELTQDPAVSVALGQTVRITCQGDSLRGSYASWHQQKPGQAPVLVIYGKNNRPSGIPDRFSVSSSGNTASLTITGAQAEDEADYYCNSSYAWLPYVVFGGGTKLTVL
binding result [1]: binds

B13: E15 (antibody, V domains shown)
VH: EVQLVESGGGLVQPGGSLRLSCTASGFTFSRYAMSTVRQAPGKGLEWVSAISGSGGSTYYADSVKGRFTISRDNSKNTLYLQMNSLRAEDTAVYYCAKSNEFLFDYWGQGTLVTVSR
VL: SSELTQDPAVSVALGQTVRITCQGDSLRSSYASWYQQKPGQAPVLVIYGKNNRPSGIPDRFSVSSSGNTASLTITGAQAEDEADYYCNSSYAWLPYVVFGGGTKLTVL
binding result [1]: binds

B14: human MA39 scFv (anti-CEA single-chain antibody fragment) (scFv, V domains shown)
VH: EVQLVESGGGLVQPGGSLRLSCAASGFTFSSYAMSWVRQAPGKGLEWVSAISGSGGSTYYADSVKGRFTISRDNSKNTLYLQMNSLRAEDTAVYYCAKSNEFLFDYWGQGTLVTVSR
VL: SSELTQDPAVSVALGQTVRITCQGDSLRSYYASWYQQKPGQAPVLVIYGKNNRPSGIPDRFSGSSSGNTASLTITGAQAEDEADYYCNSSYPWLPYVVFGGGTKLTVL
notes: clone from the ETH-2 synthetic human scFv library (DP47 heavy chain; DPK22 or DPL16 light chain, randomised CDR3s); the ELISA methods use soluble scFv; The methods name the host once as 'HB121'; also called scFv MA39; M39; source: E. coli HB2151, periplasmic extract, purified (Ni-NTA agarose); also culture supernatant
binding result [2]: binds | binding result [3]: binds
